Measured values from paper PMC11046469, “Leveraging a Phage-Encoded Noncanonical Amino Acid: A Novel Pathway to Potent and Selective Epigenetic Reader Protein Inhibitors” (ACS Central Science, 2024).

molecular target: T1, ENL YEATS domain (AviSUMO-ENL YEATS) (Homo sapiens, UniProt Q03111); assay: Phage panning of BuK-containing 7-mer library against AviSUMO-ENL YEATS with Illumina NGS abundance; settings: sheet ENLR3: round 3 of panning against ENL YEATS; TAG = amber codon (BuK); 7-mer library positions V1-V7
T1 construct: encoding ENL YEATS (aa 1−148) was cloned in pET28a-; made in house; host or cells: E. coli BL21(DE3pLysS), co-expressed with BirA (pBirAcm)
T1 sequence (Q03111 1-148): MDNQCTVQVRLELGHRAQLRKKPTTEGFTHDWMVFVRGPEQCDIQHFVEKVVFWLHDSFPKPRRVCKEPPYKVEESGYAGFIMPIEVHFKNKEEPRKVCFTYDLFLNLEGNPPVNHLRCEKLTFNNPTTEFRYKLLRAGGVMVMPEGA
Excerpt: We utilized a previously established amber-obligate 7-mer phage display library to develop a phage display library enriched with BuK-containing 7-mer peptides. For detailed characterizations, including analysis of amber codon percentages, NNK trinucleotide analysis, and amino acid distribution at each position within the library, please refer to the work of Tharp et al.[10] Furthermore, the comprehensive raw NGS data for the amber-obligate 7-mer phage library can be found in the NCBI’s Sequence Read Archive, under the accession ID PRJNA606283. To produce the BuK-containing 7-mer phage library, the phages were produced in the presence of 5 mM BuK using TOP10 cells harboring the following three plasmids: (1) pADL-gIII, which contains the 7-mer amber-obligate peptide-coding DNA library positioned at the N-terminus of M13 pIII gene; (2) pCDF-BuKRS, which encodes BuKRS and its cognate tRNA^Pyl for the genetic incorporation of BuK at amber codons in the 7-mer library; and (3) M13KO7TAA, a helper phage plasmid engineered to have a TAA mutation at pIII so that its lack of a functional pIII allows an efficient multivalent display of the 7-mer library. The ENL YEATS domain containing an N-terminal AviSUMO-Tag was recombinantly expressed in E. coli together with BirA, a biotin ligase, for site-specific biotinylation at the AviTag. The biotinylated AviSUMO-ENL YEATS was immobilized on streptavidin-coated magnetic beads for panning with the BuK-containing phages. […] Phage libraries collected from the first and third rounds of selection were sequenced using Illumina next generation sequencing (NGS) and all sequenced data are available through the NCBI SRA database (Project PRJNA1041845). To prevent possible sequencing errors from affecting conclusions, sequences were filtered using previously published paired-end processing,[10] where any sequences containing more than one mismatch in the nonlibrary region or any mismatch in the library region were discarded. The NGS data provided DNA sequences encompassing both the library and nonlibrary regions. In our analysis, we included data from the nonlibrary region as a stringent quality control measure to filter out low-quality data. For our analysis, we utilized 51 nucleotides from the NGS output, with 21 nucleotides encoding the library region and an additional 30 nucleotides for the nonlibrary region. […] Among all the sequences, only 85 of them contained more than 100 copies (blue area), while the remaining sequences all had low abundances (<10^2 copies, dark and light gray areas), which constituted 85.2% of the first round population. After three panning rounds, the selection converged to two highly enriched sequences: YDVYCYX (ENL-S1) and WWIIEXG (ENL-S2, X denotes BuK). Out of 551 different unique sequences collected from the third round, ENL-S1 and ENL-S2 represented 85% of the entire library (Figure 2A and Figures S6–S8). Both peptide sequences corresponded to their own unique DNA sequence, rather than there being varying codons encoding the same amino acids (Figure S7). […] Two motifs were found in the majority of sequences with high abundance (greater than 0.1%) (Figure S6). A Y(C/L)Y pattern was identified in the residues adjacent to BuK in four of the eight top sequences. Also, an H(L/Y)(T/V)LFXG (X denotes BuK) motif was observed, albeit at lower abundances, in two of the top sequences. In the initial round of selection, we observed that only a small percentage of phages were eluted, which aligns with typical outcomes in phage selection experiments since only a low copy number of phages can bind to the target.[10],[45] With each successive round of selection, we noted a gradual increase in the percentage of phages eluted. This incremental, rather than sharp, increase was attributed to the intensification of selection pressures, such as the application of more stringent washing protocols. We aimed for the incremental increase to retain potent clones with low copy numbers from the previous selection cycle. […]

| Substance | n (number of NGS reads of the unique amino acid sequence) | percent (share of sequence reads) [%] |
| --- | --- | --- |
| LFIALPTAG | 1 | 0.0009106 |
| LLIIETAGG | 1 | 0.0009106 |
| LLWTAGLAS | 1 | 0.0009106 |
| LTAGTVLDP | 1 | 0.0009106 |
| LTCYCYTAG | 39 | 0.03551 |
| LWIIETAGG | 26 | 0.02368 |
| NCPTAGFNL | 1 | 0.0009106 |
| QCGLRTAGD | 4 | 0.003642 |
| QCGPLTAGD | 10 | 0.009106 |
| QCGPQTAGD | 2 | 0.001821 |
| QCGPRTAGY | 10 | 0.009106 |
| QCGPRYD | 11 | 0.01002 |

Other lines, results leading:

| n (number of NGS reads of the unique amino acid sequence) | percent (share of sequence reads) [%] | Substance |
| --- | --- | --- |
| 1 | 0.0009106 | LLAFLWL |
| 1 | 0.0009106 | LNAEFTAGA |
| 1 | 0.0009106 | LTAGMPRSF |
| 1 | 0.0009106 | LTAGSSASG |
| 4 | 0.003642 | LWIFTPTAG |
| 1 | 0.0009106 | LYGSTAGDC |
| 1 | 0.0009106 | MFTAGITDN |
| 1 | 0.0009106 | MTAGGLRHS |
| 1 | 0.0009106 | NAIYCYTAG |
| 10 | 0.009106 | QCCPRTAGD |
| 9049 | 8.24 | QCGPRTAGD |
| 3 | 0.002732 | QCGPRTAGN |
| 4 | 0.003642 | QCGPWTAGD |

same assay, conditions: sheet ENLR3: round 3 of selection against ENL YEATS; TAG = amber codon (BuK)

| Substance | n (number of NGS reads of the 7-mer sequence V1-V7) | percent (share of NGS reads of the 7-mer sequence V1-V7) [%] |
| --- | --- | --- |
| NLTLFTAGG | 1 | 0.0009106 |
| NTITAGISL | 1 | 0.0009106 |
| NYVLFTAGG | 1 | 0.0009106 |
| QCDPRTAGD | 1 | 0.0009106 |
| QCGPRQD | 1 | 0.0009106 |
| QCGPRTAGE | 1 | 0.0009106 |
| QCGPRTAGV | 1 | 0.0009106 |
| QCGPRWD | 1 | 0.0009106 |
| QCGPWTAGG | 1 | 0.0009106 |

Next, values leading:

| n (number of NGS reads of the 7-mer sequence V1-V7) | percent (share of NGS reads of the 7-mer sequence V1-V7) [%] | Substance |
| --- | --- | --- |
| 1 | 0.0009106 | NTAGNIGLY |
| 1 | 0.0009106 | QCAPRTAGD |
| 1 | 0.0009106 | QCGPPTAGD |
| 1 | 0.0009106 | QCGPRTAGG |
